According to patent US20150285818A1, “Switchable Reporter Enzymes for Homogenous Antibody Detection” (TECHNISCHE UNIVERSITEIT EINDHOVEN, priority 2012, published 2015):

Key:
anti-HIV1-p17 antibody [1] = assay: Reporter enzyme activity assay with nitrocefin and anti-HIV1-p17 antibody titration; conditions: 50 μM nitrocefin; for Kd: read-out: dissociation constant (Kd) of reporter enzyme for target antibody, fit of nitrocefin hydrolysis rate vs anti-HIV1-p17 concentration, 1:1 binding model, pH 7.0; for increase in enzymatic activity upon addition of 200 nM anti-HIV1-p17: 0.3 nM sensor, 200 nM antibody
IgG mix = assay: Specificity of reporter enzyme activity towards nonspecific IgG mix; conditions: up to highest IgG concentration tested (2 μM)
anti-HIV1-p17 antibody [2] = assay: Reporter enzyme activity assay with fluorescent substrate CCF2-FA in buffer and serum

Molecule | increase in enzyme activity upon addition of target antibody (anti-HIV1-p17 antibody [1]; saturating anti-HIV1-p17) [fold] | Kd (anti-HIV1-p17 antibody [1]) [nM] | increase in enzymatic activity upon addition of 200 nM anti-HIV1-p17 (anti-HIV1-p17 antibody [1]) | enzymatic (background) activity in the absence of antibody (anti-HIV1-p17 antibody [1]) | increase in enzyme activity with random mix of IgG proteins (IgG mix) | increase in enzyme activity upon addition of 50 nM target antibody in serum (anti-HIV1-p17 antibody [2]; 5 nM sensor, 10% FBS, 10 μM CCF2-FA) [fold] | dynamic range with CCF2-FA as substrate (anti-HIV1-p17 antibody [2]; 1 μM CCF2-FA in buffer, 0.1 nM sensor) [fold] | enzymatic activity in absence of target antibody, 1 μM CCF2-FA compared to 50 μM nitrocefin (anti-HIV1-p17 antibody [2]; buffer)
Abs2-2: Abs3-2 with the large epitope changed for the shorter WEKIRLR epitope; SEQ ID NO: 20 (protein) MSIQHFRVALIPFFAAFCLPVFAHHHHHHLVPRGSHPETLVKVKDAEDQLGARVGYIELDLNSGKILESFRPEERFPMMSTFKVLLCGAVLSRIDAGQEQLGRRIHYSQNDLVDYSPVTEKHLTDGMTVRELCSAAITMSDNTAANLLLTTIGGPKELTAFLHNMGDHVTRLDRWEPELNEAIPNDERDTTMPVAMATTLRKLLTGELLTLASRQQLIDWMEADKVAGPLLRSALPAGWFIADKSGAGERGSRGIIAALGPDGKPSRIVVIYTTGSQATMDERNRQIAEIGASLIKHWTSGGWEKIRLRGGSGGSGGSGGSGGSGGSGAEAAAKEAAAKEAAAKEAAAKEAAAKEAAAKAGSGGSGGSGGPQGILGQGSGGSGGSGGSGAEAAAKEAAAKEAAAKEAAAKEAAAKEAAAKAGSGGSGGSGGSGGSGGSGGWEKIRLRGGSGGSHGAGVMTGAKFTQIQFGMTRQQVLDIAGAENCETGGSFGDSIHCRGHAAGDYYAYATFGFTSAAADAKVDSKSQEKLLAPSAPTLTLAKFNQVTVGMTRAQVLATVGQGSCTTWSEYYPAYPSTAGVTLSLSCFDVDGYSSTGAYRGSAHLWFTDGVLQGKRQWDLVGEFGGWSHPQFEK | 1.8 | 108 | – | – | – | – | – | –
Abs-2: TEM1 β-lactamase fused via linker with WEKIRLR epitopes to BLIP protein as inhibitor domain; SEQ ID NO: 13 (protein) MSIQHFRVALIPFFAAFCLPVFAHHHHHHLVPRGSHPETLVKVKDAEDQLGARVGYIELDLNSGKILESFRPEERFPMMSTFKVLLCGAVLSRIDAGQEQLGRRIHYSQNDLVEYSPVTEKHLTDGMTVRELCSAAITMSDNTAANLLLTTIGGPKELTAFLHNMGDHVTRLDRWEPELNEAIPNDERDTTMPVAMATTLRKLLTGELLTLASRQQLIDWMEADKVAGPLLRSALPAGWFIADKSGAGERGSRGIIAALGPDGKPSRIVVIYTTGSQATMDERNRQIAEIGASLIKHWTSGGWEKIRLRGGSGGSGGSGGSGGSGGSGAEAAAKEAAAKEAAAKEAAAKEAAAKEAAAKAGSGGSGGSGGPQGILGQGSGGSGGSGGSGAEAAAKEAAAKEAAAKEAAAKEAAAKEAAAKAGSGGSGGSGGSGGSGGSGGWEKIRLRGGSGGSHGAGVMTGAKFTQIQFGMTRQQVLDIAGAENCETGGSFGDSIHCRGHAAGDYYAYATFGFTSAAADAKVDSKSQEKLLAPSAPTLTLAKFNQVTVGMTRAQVLATVGQGSCTTWSEYYPAYPSTAGVTLSLSCFDVDGYSSTGFYRGSAHLWFTDGVLQGKRQWDLVGEFGGWSHPQFEK | – | – | no increase in activity | strongly inhibited | – | – | – | –
Abs3-1: Abs-3 variant with E104D in β-lactamase and E31A in BLIP; SEQ ID NO: 22 (protein) MSIQHFRVALIPFFAAFCLPVFAHHHHHHLVPRGSHPETLVKVKDAEDQLGARVGYIELDLNSGKILESFRPEERFPMMSTFKVLLCGAVLSRIDAGQEQLGRRIHYSQNDLVDYSPVTEKHLTDGMTVRELCSAAITMSDNTAANLLLTTIGGPKELTAFLHNMGDHVTRLDRWEPELNEAIPNDERDTTMPVAMATTLRKLLTGELLTLASRQQLIDWMEADKVAGPLLRSALPAGWFIADKSGAGERGSRGIIAALGPDGKPSRIVVIYTTGSQATMDERNRQIAEIGASLIKHWTSGGELDRWEKIRLRPGGSGGSGGSGGSGGSGGSGAEAAAKEAAAKEAAAKEAAAKEAAAKEAAAKAGSGGSGGSGGSGGSGGSGAEAAAKEAAAKEAAAKEAAAKEAAAKEAAAKAGSGGSGGSGGSGGSGGSGGELDRWEKIRLRPGGSHGAGVMTGAKFTQIQFGMTRQQVLDIAGAENCATGGSFGDSIHCRGHAAGDYYAYATFGFTSAAADAKVDSKSQEKLLAPSAPTLTLAKFNQVTVGMTRAQVLATVGQGSCTTWSEYYPAYPSTAGVTLSLSCFDVDGYSSTGFYRGSAHLWFTDGVLQGKRQWDLVGEFGGWSHPQFEK | – | 0.17 ± 0.03 | – | low background activity | No significant increase | 10 | 9 | significantly lower
Abs3-2: Abs-3 variant with E104D in β-lactamase and F142A in BLIP; SEQ ID NO: 37 (protein) MSIQHFRVALIPFFAAFCLPVFAHHHHHHLVPRGSHPETLVKVKDAEDQLGARVGYIELDLNSGKILESFRPEERFPMMSTFKVLLCGAVLSRIDAGQEQLGRRIHYSQNDLVDYSPVTEKHLTDGMTVRELCSAAITMSDNTAANLLLTTIGGPKELTAFLHNMGDHVTRLDRWEPELNEAIPNDERDTTMPVAMATTLRKLLTGELLTLASRQQLIDWMEADKVAGPLLRSALPAGWFIADKSGAGERGSRGIIAALGPDGKPSRIVVIYTTGSQATMDERNRQIAEIGASLIKHWTSGGELDRWEKIRLRPGGSGGSGGSGGSGGSGGSGAEAAAKEAAAKEAAAKEAAAKEAAAKEAAAKAGSGGSGGSGGSGGSGGSGAEAAAKEAAAKEAAAKEAAAKEAAAKEAAAKAGSGGSGGSGGSGGSGGSGGELDRWEKIRLRPGGSHGAGVMTGAKFTQIQFGMTRQQVLDIAGAENCETGGSFGDSIHCRGHAAGDYYAYATFGFTSAAADAKVDSKSQEKLLAPSAPTLTLAKFNQVTVGMTRAQVLATVGQGSCTTWSEYYPAYPSTAGVTLSLSCFDVDGYSSTGAYRGSAHLWFTDGVLQGKRQWDLVGEFGGWSHPQFEK | – | 0.19 ± 0.02 | – | low background activity | No significant increase | – | – | –
Abs-1: TEM1 β-lactamase fused via linker with WEKIRLR epitopes to weak-binding RRGHYY peptide inhibitor; SEQ ID NO: 12 (protein) MSIQHFRVALIPFFAAFCLPVFAHHHHHHLVPRGSHPETLVKVKDAEDQLGARVGYIELDLNSGKILESFRPEERFPMMSTFKVLLCGAVLSRIDAGQEQLGRRIHYSQNDLVEYSPVTEKHLTDGMTVRELCSAAITMSDNTAANLLLTTIGGPKELTAFLHNMGDHVTRLDRWEPELNEAIPNDERDTTMPVAMATTLRKLLTGELLTLASRQQLIDWMEADKVAGPLLRSALPAGWFIADKSGAGERGSRGIIAALGPDGKPSRIVVIYTTGSQATMDERNRQIAEIGASLIKHWTSGGWEKIRLRGGSGGSGGSGGSGGSGGSGAEAAAKEAAAKEAAAKEAAAKEAAAKEAAAKAGSGGSGGSGGPQGILGQGSGGSGGSGGSGAEAAAKEAAAKEAAAKEAAAKEAAAKEAAAKAGSGGSGGSGGSGGSGGSGGWEKIRLRGGSGGSHGRRGHYYGEFGGWSHPQFEK | – | – | no increase in enzymatic activity | – | – | – | – | –
